Assay results: PMC4914113, “Another look at the mechanism involving trimeric dUTPases in Staphylococcus aureus pathogenicity island induction involves novel players in the party” (Nucleic Acids Research, 2016)

Columns and labels:
[1] = biological target: Dutϕ11^(ΔVI F164A) (Staphylococcus aureus phage ϕ11); experiment: BLI; as a1, buffer STL supplemented with 0.5 mM dUPNPP (baselines and dissociation without nucleotide); 1:1 model
[2] = biological target: Dutϕ11^ΔVI, Dutϕ11 lacking motif VI (Staphylococcus aureus phage ϕ11); experiment: as above
[3] = biological target: Dut80α^ΔV, Dut80α motif V deletion mutant (Staphylococcus aureus phage 80α); experiment: as above
[4] = biological target: Dut80α D81A D110C S168C (Staphylococcus aureus phage 80α); experiment: as above
[5] = biological target: Dutϕ11^WT, wild-type dUTPase of phage ϕ11 (Staphylococcus aureus phage ϕ11); experiment: as above
[6] = biological target: Dut80α^F165A (Staphylococcus aureus phage 80α); experiment: as above
[7] = biological target: Dut80α^D81A (Staphylococcus aureus phage 80α); experiment: as above
[8] = biological target: Dut80α^WT, wild-type dUTPase of phage 80α (Staphylococcus aureus phage 80α); experiment: as above
[9] = biological target: Dutϕ11^ΔV, Dutϕ11 motif V deletion mutant (Staphylococcus aureus phage ϕ11); experiment: as above
[10] = biological target: Dut80α^ΔVI, Dut80α lacking motif VI (Staphylococcus aureus phage 80α); experiment: as above
[11] = biological target: Dut80α^Y84I (Staphylococcus aureus phage 80α); experiment: as above
[12] = biological target: Dutϕ11^ΔV-ΔVI (Staphylococcus aureus phage ϕ11); experiment: as above
[13] = biological target: Dutϕ11^IV-80α (Staphylococcus aureus phage ϕ11); experiment: BLI; BLItz; His-tagged Dut immobilised at 1 μM on Ni-NTA biosensors, Stl in solution (at least five dilutions, 4 to 0.062 μM); buffer STL (400 mM NaCl, 75 mM HEPES pH 7.5, 5 mM MgCl2, 2 mM DTT); no nucleotide; 1:1 model
[14] = biological target: Dut80α D81A D110C S168C (Staphylococcus aureus phage 80α); experiment: as above
[15] = biological target: Dutϕ11^ΔVI-IV-80α (Staphylococcus aureus phage ϕ11); experiment: as above
[16] = biological target: Dut80α^F165A (Staphylococcus aureus phage 80α); experiment: as above
[17] = biological target: Dut80α^WT, wild-type dUTPase of phage 80α (Staphylococcus aureus phage 80α); experiment: as above
[18] = biological target: Dut80α^Y84I (Staphylococcus aureus phage 80α); experiment: as above
[19] = biological target: Dutϕ11^ΔV-ΔVI (Staphylococcus aureus phage ϕ11); experiment: as above

Stl repressor from SaPIbov1 (natural protein)
Kd [1]: 378 nM | koff [1]: 0.0031 s⁻¹ | kon [1]: 8200 M⁻¹ s⁻¹ | Kd [2]: 12.7 nM | koff [2]: 0.00014 s⁻¹ | kon [2]: 11000 M⁻¹ s⁻¹ | Kd [3]: 525 nM | koff [3]: 0.0042 s⁻¹ | kon [3]: 8000 M⁻¹ s⁻¹ | Kd [4]: 192 nM | koff [4]: 0.005 s⁻¹ | kon [4]: 26000 M⁻¹ s⁻¹ | Kd [5]: 300 nM | koff [5]: 0.0006 s⁻¹ | kon [5]: 2000 M⁻¹ s⁻¹ | Kd [6]: > 1000 nM | Kd [7]: > 1000 nM | Kd [8]: 466 nM | koff [8]: 0.0014 s⁻¹ | kon [8]: 3000 M⁻¹ s⁻¹ | Kd [9]: 3.84 nM | koff [9]: 5e-05 s⁻¹ | kon [9]: 13000 M⁻¹ s⁻¹ | Kd [10]: > 1000 nM | Kd [11]: > 1000 nM | Kd [12]: 200 nM | koff [12]: 0.0019 s⁻¹ | kon [12]: 9500 M⁻¹ s⁻¹ | Kd [13]: 3.33 nM | koff [13]: 0.00025 s⁻¹ | kon [13]: 75000 M⁻¹ s⁻¹ | Kd [14]: 58.3 nM | koff [14]: 0.0014 s⁻¹ | kon [14]: 24000 M⁻¹ s⁻¹ | Kd [15]: > 1000 nM | Kd [16]: 581 nM | koff [16]: 0.0157 s⁻¹ | kon [16]: 27000 M⁻¹ s⁻¹ | Kd [17]: 40 nM | koff [17]: 0.001 s⁻¹ | kon [17]: 25000 M⁻¹ s⁻¹ | Kd [18]: > 1000 nM | Kd [19]: 111 nM | koff [19]: 0.0019 s⁻¹ | kon [19]: 17000 M⁻¹ s⁻¹
